# B1: DASH complex subunit DAM1 (Saccharomyces cerevisiae), P53267 (parent)
# chain: MSEDKAKLGTTRSATEYRLSIGSAPTSRRSSMGESSSLMKFADQEGLTSSVGEYNENTIQQLLLPKIRELSDSIITLDSNFTRLNFIHESLADLNESLGSLLYGIMSNSWCVEFSQAPHDIQDDLIAIKQLKSLEDEKNNLVMELSNMERGIKRKKDEQGENDLAKASQNKQFNQPLFPSSQVRKYRSYDNRDKRKPSKIGNNLQVENEEDYEDDTSSEASFVLNPTNIGMSKSSQGHVTKTTRLNNNTNSKLRRKSILHTIRNSIASGADLPIENDNVVNLGDLHPNNRISLGSGAARVVNGPVTKNRNSMFSGRAERKPTESRHSVAKKTEKKINTRPPFR
# partner: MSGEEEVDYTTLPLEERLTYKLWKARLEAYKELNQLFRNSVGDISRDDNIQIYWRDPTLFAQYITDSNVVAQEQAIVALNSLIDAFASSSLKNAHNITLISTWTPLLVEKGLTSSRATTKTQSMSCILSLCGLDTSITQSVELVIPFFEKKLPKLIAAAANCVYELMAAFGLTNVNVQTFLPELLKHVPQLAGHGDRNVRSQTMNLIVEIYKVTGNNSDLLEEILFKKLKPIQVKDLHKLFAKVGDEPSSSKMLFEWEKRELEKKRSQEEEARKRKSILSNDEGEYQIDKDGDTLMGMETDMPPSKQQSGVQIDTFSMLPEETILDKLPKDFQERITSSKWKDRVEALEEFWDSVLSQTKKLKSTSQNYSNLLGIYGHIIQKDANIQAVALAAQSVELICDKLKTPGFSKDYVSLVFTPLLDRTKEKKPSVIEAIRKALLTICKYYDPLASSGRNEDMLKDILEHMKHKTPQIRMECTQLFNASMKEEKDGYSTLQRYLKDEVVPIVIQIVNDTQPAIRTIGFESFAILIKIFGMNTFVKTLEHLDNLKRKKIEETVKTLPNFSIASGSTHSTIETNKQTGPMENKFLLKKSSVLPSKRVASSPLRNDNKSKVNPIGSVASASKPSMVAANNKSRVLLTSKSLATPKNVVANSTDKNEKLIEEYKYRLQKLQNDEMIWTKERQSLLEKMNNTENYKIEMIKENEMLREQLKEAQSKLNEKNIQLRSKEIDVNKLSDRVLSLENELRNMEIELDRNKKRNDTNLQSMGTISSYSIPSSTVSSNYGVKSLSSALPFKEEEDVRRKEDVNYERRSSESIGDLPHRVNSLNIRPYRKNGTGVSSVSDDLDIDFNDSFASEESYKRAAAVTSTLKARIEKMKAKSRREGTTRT
# B2: DASH complex subunit DAM1 (Saccharomyces cerevisiae), P53267 (parent)
# chain: B1 chain
# Variants of: B1
# Conditions: with stu2_yeast STU2, P46675
row,Variant,effect of a mutation on the interaction
1,MSEDKAKLGTTRSATEYRLSIGSAPTSRRSSMGESSSLMKFADQEGLTSSVGEYNENTIQQLLLPKIRELSDSIITLDSNFTRLNFIHESLADLNESLGSLLYGIMSNSWCVEFSQAPHDIQDDLIAIKQLKSLEDEKNNLVMELSNMERGIKRKKDEQGENDLAKASQNKQFNQPLFPSSQVRKYRSYDNRDKRKPSKIGNNLQVENEEDYEDDTSSEASFVLNPTNIGMSKSSQGHVTKTTRLNNNTNSKLRRKDILHTIRNDIASGADLPIENDNVVNLGDLHPNNRIDLGSGAARVVNGPVTKNRNSMFSGRAERKPTESRHDVAKKTEKKINTRPPFR [S257D;S265D;S292D;S327D],disrupting interaction strength

# Variants of: B2
# Conditions: with ndc80_yeast NDC80, P40460
# Chain of ndc80_yeast NDC80, P40460 (P40460 whole entry): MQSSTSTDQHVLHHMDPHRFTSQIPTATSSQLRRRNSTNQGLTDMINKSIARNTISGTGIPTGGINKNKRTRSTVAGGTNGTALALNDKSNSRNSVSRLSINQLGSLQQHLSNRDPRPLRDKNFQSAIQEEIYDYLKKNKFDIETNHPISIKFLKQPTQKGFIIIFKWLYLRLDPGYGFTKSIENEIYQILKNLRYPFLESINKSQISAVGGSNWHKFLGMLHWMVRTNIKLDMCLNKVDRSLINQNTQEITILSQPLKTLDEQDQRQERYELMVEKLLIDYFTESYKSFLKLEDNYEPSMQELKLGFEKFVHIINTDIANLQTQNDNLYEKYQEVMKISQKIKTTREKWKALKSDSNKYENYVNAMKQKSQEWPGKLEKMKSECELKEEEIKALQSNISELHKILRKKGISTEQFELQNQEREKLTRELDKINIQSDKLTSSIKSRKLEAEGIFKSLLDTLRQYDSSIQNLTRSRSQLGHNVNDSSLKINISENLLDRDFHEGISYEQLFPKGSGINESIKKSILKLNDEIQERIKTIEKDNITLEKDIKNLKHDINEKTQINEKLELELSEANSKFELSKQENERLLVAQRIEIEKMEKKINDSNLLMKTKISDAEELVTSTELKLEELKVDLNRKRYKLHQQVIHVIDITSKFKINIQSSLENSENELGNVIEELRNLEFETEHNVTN
row,Variant,effect of a mutation on the interaction
1,MSEDKAKLGTTRSATEYRLSIGSAPTSRRSSMGESSSLMKFADQEGLTSSVGEYNENTIQQLLLPKIRELSDSIITLDSNFTRLNFIHESLADLNESLGSLLYGIMSNSWCVEFSQAPHDIQDDLIAIKQLKSLEDEKNNLVMELSNMERGIKRKKDEQGENDLAKASQNKQFNQPLFPSSQVRKYRSYDNRDKRKPSKIGNNLQVENEEDYEDDTSSEASFVLNPTNIGMSKSSQGHVTKTTRLNNNTNSKLRRKDILHTIRNDIASGADLPIENDNVVNLGDLHPNNRIDLGSGAARVVNGPVTKNRNSMFSGRAERKPTESRHDVAKKTEKKINTRPPFR [S257D;S265D;S292D;S327D],decreasing interaction strength
